We go through one molecule from patent US9725702B2, “Laccase from ganoderma lucidum capable of enhancing enzymatic degradation of lignocellulolytic biomass” (DANMARKS TEKNISKE UNIVERSITET, priority 2012, dated 2017).

Common to all, as to format: biochemical
The nature of data set [1]: Laccase activity assay with ABTS; influence of pH and temperature. The text has this:
FIG. 8. A surface response plot of the relative activity (U/mL) of the LacGL1 laccase expressed in Pichia pastoris as a function of pH and temperature. The effect of the pH and temperature on the LacGL1 laccase activity, expressed from P. pastoris, was modeled via randomized, full factorial, statistically designed experiment—MODDE program version 7.0.0.1 (Umetrics, Umeå, Sweden). The statistical design consisted of 12 experiments, including a triplicate repetition at the center point (pH 5 and 40° C.), using ABTS as a substrate. The influence of the temperature and pH was monitored between 25-55° C. and pH 4-6 (for 0.1 M citrate-phosphate buffer), respectively. The mixture with the ABTS and buffer at the defined pH value was incubated for 5 min. in a thermocycler set to a desired temperature and afterwards added to a previously pre-diluted enzyme in a microtiter plate which was incubated for 1 min. in a microtiter plate reader set to a desired temperature. After mixing the substrate and buffer with the enzyme, the initial rate of the product formation was measured as described above. The volumes and concentrations of enzyme, substrate, and buffer were identical as for the laccase activity assay.
The laccase activity was measured based on a modified method of Ters et al. (2009). The laccase activity was defined as the amount of the enzyme required to oxidise 1 μmol of ABTS per minute at 25° C., and pH 4.7. The assay mixture contained: 0.1 M citrate-phosphate buffer (255 μL, pH 4.7), ABTS (5 μL, 4 mM (ABTS stock solution)), and pre-diluted laccase (5 μL) that ensured the linear range of Michaelis-Menten kinetics. The oxidation of ABTS was monitored at 420 nm (ε420=36800 M^−1cm^−1) for 2 min. in an Infinite 200 microtiter plate reader (Tecan, Salzburg, Austria). Laccase activity assays on the substrates: hydroquinone (248 nm), 2.6-dimethoxyphenol (470 nm), and guaiacol (436 nm) was done similarly with the substrate concentration as described in Table 2 using the following extinction coefficient values: 17.542 M^−1cm^−1, 35.645 M^−1cm^−1, and 6.400 M^−1cm^−1, respectively (Minussi et al. 2007). The data collection was monitored by the program Tecan i-control version 1.5.14.0 (Tecan, Salzburg, Austria). The calculated laccase activity was corrected by the absorbance of a control sample which contained: 0.1 M citrate-phosphate buffer (255 μL, pH 4.7), ABTS (5 μL, 4 mM), and 5 μL of distilled water instead of the enzyme. […]
The effect of the pH and temperature on the LacGL1 laccase activity was determined with a statistically designed, randomized, full factorial experiment as described in FIG. 8. The relative laccase activity was calculated based on the LacGL1 activity at pH 4.7 and 25° C. […]

A short description of data set [2]: Laccase-cellulase catalyzed hydrolysis of pretreated biomass, glucose release. Conditions: with cellulase 1 or 2, pH 5.1, 50° C., 30 hour, p<0.05. Here is the method:
FIG. 14. A graphical comparison of glucose released over time during hydrolysis of pre-treated barley straw at pH 5.1 and 50° C. by each of commercial enzyme preparations Cellulase 1 (CC2) [A]; or Cellulase 2 [B], either alone, or in combination with a laccase enzyme; the tested laccases being respectively LacGL1 and GLlac1 (LacJooSS; Q9HG17) derived from G. lucidum; and laccases derived from Agaricus bisporus (Sigma 40452), Pleurotus ostreatus (Sigma 75117) and, Trametes versicolor (Sigma 51639).
(§1) The commercial fungal laccases were purchased as lyophilized protein samples from Sigma Aldrich. A solution of each of the above 5 laccases was prepared in a citric buffer containing 20% of glycerol (pH 5.1, 100 mM).
(§2) Two different commercially available cellulase enzyme preparations used in the comparative study were “Cellulase 1” and “Cellulase 2”, which were tested in combination with each of the laccases listed above.
(§3) The three different types of pretreated biomass used in the comparative study were sugarcane bagasse, barley straw and wheat straw. The source and pre-treatment of the sugarcane bagasse by steam explosion was as set out in Example 9. […] The composition of the dry and the pretreated biomass were determined according to the US National Renewable Energy Laboratory (NREL) procedures (Sluiter et al, 2010).
(§4) The laccase-cellulase catalyzed hydrolysis of the pretreated biomass samples to release glucose was performed as follows: Hydrolysis of 5% (w/v) samples of pretreated sugarcane bagasse, barley straw, and wheat straw biomass were assayed using an Enzyme/Substrate (E/S) ratio of 0.064% w/w for laccases and of 0.4% w/w for each commercial cellulase preparation in each hydrolysis reaction. The E/S dosage was based on the total protein concentration used, as determined using Pierce BCA (BiCinchoninic Acid) protein assay kit microplate procedure according to manufacturer's instruction (Thermo Fisher Scientific, Rockford, US). […]
(§5) Laccase and cellulase-mediated hydrolysis of the 3 biomass forms, measured as glucose release, are shown graphically in FIGS. 13, 14 and 15. […]

Test in data set [3]: as above
Conditions: with cellulase 1 or 2, pH 5.1, 50° C., 30 hour. Here is the method:
FIG. 15. A graphical comparison of glucose released over time during hydrolysis of pre-treated wheaty straw at pH 5.1 and 50° C. by each of commercial enzyme preparations Cellulase 1 (CC2) [A]; or Cellulase 2 [B], either alone, or in combination with a laccase enzyme; the tested laccases being respectively LacGL1 and GLlac1 (LacJooSS; Q9HG17) derived from G. lucidum; and laccases derived from Agaricus bisporus (Sigma 40452), Pleurotus ostreatus (Sigma 75117) and, Trametes versicolor (Sigma 51639).
as §1, §2, §3, §4, §5

B1: LacGL1: Fungal laccase from Ganoderma lucidum CBS229.93 (SEQ ID NO: 5/9), recombinantly expressed in Pichia pastoris X-33 (protein, listed as Ganoderma lucidum)
chain: GIGPKTDLTISNADVAPDGYTRAAVVVNGVFPAPLITGNKGDRFQLNVIDQMTNHTMLKSTSIHWHGFFQKGTNWADGPAFINQCPISSGHSFLYDFQVPDQAGTFWYHSHLSTQYCDGLRGPFVVYDPKDPLKKLYDIDDDSTVITLTDWYHVAARLGPRFPLGSDSTLINGLGRSTTNVTADLAVINVTQGKRYRFRLVSLSCDPNYTFSIDDHNMTVIEADGIETQPVTVNAIQIFSAQRYSFVLTANQTIDNYWIRANPNFGNVGFTDGINSAILRYAGADPVEPTTSQQTTQNLLNEVDLHPFVPKRTPGQPTQGGVDTAINMVFNFNGSNFFINNASFVPPTVPVLLQILSGAQAAQDLLPSGSVYTLPVNKSIELTFPATANAPGAPHPFHLHGHAFAVVRSAGSTVYNYDNPVWRDVVSTGTPAAGDNVTIRFQTDNPGPWFLHCHIDFHLEAGFAVVFAEDPTDTSLANPVPKAWSDLCPTYDALSVDDQ
modifications: mat_peptide (1)..(499) Mature LacGL1 laccase (minus signal peptide)
On to B1, for which the laccase activity in data set [1] (expressed by recombinant P. pastoris, after sterile filtration, ABTS, 25° C., pH 4.7) was 17.5 U/mL. For the same molecule, in data set [1] (pH 4.7), the “temperature at which activity is highest” value is 40-50 °C. Also, the “temperature optimum (predicted, highest relative activity)” value in data set [1] (pH 4.7, ABTS, factorial model 25-55° C.) is 55 °C. Further, in data set [1] (substrate ABTS), the “pH optimum (highest relative activity)” value is recorded as 4.7. Further, the figures for the “glucose release compared to GLlac1” value in data set [2] and in data set [3] were “significantly greater” and “the same”, respectively. The “glucose release compared to the other tested laccases” value in data set [2] and in data set [3] (p<0.05) was “significantly enhanced” each time.
